Patent US11045560B2, “Therapeutic conjugates with sulfated dendrimers for intracellular targeting” (IC DISCOVERY GMBH, priority 2014, dated 2021)
No end group written: not given here. d02 = not defined here

Legend:
[1] = test system: HT29, HepG2, QGP-1, A431, MCF-7, A2780; assay: Inhibition of cell proliferation measured by MTT test; format: cell-based, human
[2] = test system: HT29, HepG2, QGP-1, A431, MCF-7, A2780; details: for % uptake: FACS, relative to ICC-d01, range from different cell lines, incubation 24 h, conjugates additionally ICC-labeled, fluorescence-corrected
Method: The human cancer cell lines A2780 and QGP-1 are cultured in RPMI medium, with 10% fetal calf serum (FCS), 2% glutamine, and penicillin/streptomycin added. All cells are seeded into medium at 1×10^5 cells/ml, cultured at 37° C. with 5% CO2, and split 1:5 two times a week. The epithelial human cancer cell lines A549, MCF7, HaCaT, and HepG2 are propagated in DMEM medium (PAN Biotech), with 10% fetal FCS, 2% glutamine, and penicillin/streptomycin. Cells are seeded into medium at 1×10^5 cells/ml (37° C. with 5% CO2, split 1:5 two times a week). HT29 cells are cultured in McCoy's medium (PAN biotech), with 10% FCS), 2% glutamine, and penicillin/streptomycin. Cells are seeded into medium at 1×10^5 cells/ml (37° C. with 5% CO2, split 1:10 two times a week). […] Afterwards, cells are fixed with cold acetone, rinsed and covered with 4,6-diamidino-2-phenylindole (DAPI, Abcam) for nuclear counterstain. Image acquisition is performed using a Leica DMRB microscope (Leica). Images are taken with a digital camera (Spot 32, Diagnostic Instruments) with the same exposure time for all pictures. […] This amount and time is sufficient to measure the supernatant after pooling and cell lysis with DMSO.
For FACS studies, 2×10^5 cells/ml cells are cultured in 24-well plates with normal culture medium or medium containing different concentrations of test substances for 3 or 24 hours. Thereafter, cells are washed with PBS and detached with 200 μl/well accutase (PAA) and washed two times with PBS. Cells are fixed with 500 μl 3% paraformaldehyde for 10 min at 4° C., stopped with 2 ml PBS and centrifuged with 250×g, for 10 min at 4° C. Supernatants are removed and cells were suspended in 200 μl PBS with 0.5% bovine serum albumin (Roth).
Fixed cells are kept at 4° C. until analysis in a FACS Calibur instrument (Becton-Dickinson).

[3] = test system: HT29, HepG2, QGP-1, MCF-7; assay: Inhibition of cell proliferation by MTT test, comparison to sulfated polymer; format: cell-based, human; details: range from 4 cell lines (Table 8)
Method: For cytotoxicty measurements, 2×10^5 cells were incubated with 1 ml culture medium containing increasing concentrations of test substances. After 72 hs treatment, cell number, viability and cell diameter as parameter of apoptotic processes were analyzed in a cell counter and analyzer system (CASY®, Schärfe Systems). In addition, drug cytotoxicity was assessed in vitro using the MTT assay (cellular reduction of 3-(4,5-dimethylthiazol-2-yl)-2,5-diphenyltetrazolium bromide) as a test for metabolic activity of the cells. 1×10^4 cells per well were seeded in 96-well plates in 100 μl culture medium containing increasing concentration of the test substance. 10 μl MTT (5 mg/ml in PBS, obtained from Sigma) was added to each well and the plates were incubated for 4 hrs, 24 hrs, 48 hrs or up to 72 h. The resulting formazan product was dissolved with acid isopropanol and the absorbance at a wavelength of 570 nm (Ex570) was read on a Microplate Spectrophotometer (Anthos htII, Microsystems). In a couple of experiments, medium with test substances was removed after 48 hs, cells were counted and identical cell numbers with new medium without test substances were seeded in new plates. MTT assay was performed after further incubation for 72 hours.
This polymer is functionalized with the linker maleimido-PEG(4)-COOH NHS ester as described in example 2a, and further purified via RP chromatography. […]

QGP-1 tumor cells = assay: Uptake into QGP-1 cells by FACS in presence of genistein or rifamycin; format: cell-based, human; details: for uptake +genistein (%) / uptake +rifamycin (%): relative to without inhibitor; for uptake w/o inhibitor (%): without inhibitor defined as 100%
Method: Studies on cellular uptake measured by FACS were conducted as described in example 13. Compound Asp-d13 is incubated at a concentration of 10^−7 M in QGP-1 tumor cells for 3 h and 6 h. Incubation is done in the presence of one of the following two substrates: (1) 0.1 mM genistein, an inhibitor for endocytotic uptake (Rejman et al., Mol. Ther. 2005, 12, 468-474) or (2) 50 mM rifamycin, an inhibitor of uptake via organic anion transporter proteins (OATP; Bi et al., Drug Metab Dispos. 2012, 40, 1085-92).

[4] = range from different cell lines, peptide-dendrimer conjugates (Table 7)
[5] = range from different cell lines (Table 6)

d02-P5: peptide P5 conjugated to maleimido dendrimer d02 (C(d02)GEEQWAREIGAQLRRMADDLNAQYER-NH2; reading uncertain; also: conjugated via N-terminal Cys thiol to maleimido dendrimer d02)
IC50 [1, 4]: 0.8 to 2 µM

d02-P6: peptide P6 conjugated to maleimido dendrimer d02 (C(d02)GEDIIRNIARHAAQVGASADRSI-NH2; reading uncertain; also: conjugated via N-terminal Cys thiol to maleimido dendrimer d02)
IC50 [1, 4]: 1.2 to 2.3 µM

d02-P1: peptide P1 conjugated to maleimido dendrimer d02 (CGMRPEIWIAQELRRIGDEFNA; conjugated to maleimido dendrimer d02; BIM)
IC50 [1, 4]: 0.9 to 2.1 µM

saporin
% uptake [2]: 5-8%
IC50 [3]: > 1 µM
IC50 [1, 5]: > 1 µM

DNase
% uptake [2]: 4-12%
IC50 [1, 5]: > 2 µM

Diphtheria toxin
% uptake [2]: 8-10%
IC50 [1, 5]: > 0.5 µM

B1: L-asparaginase (protein, UniProt P00805 23-348, looked up)
L-asparaginase 2: LPNITILATGGTIAGGGDSATKSNYTVGKVGVENLVNAVPQLKDIANVKGEQVVNIGSQDMNDNVWLTLAKKINTDCDKTDGFVITHGTDTMEETAYFLDLTVKCDKPVVMVGAMRPSTSMSADGPFNLYNAVVTAADKASANRGVLVVMNDTVLDGRDVTKTNTTDVATFKSVNYGPLGYIHNGKIDYQRTPARKHTSDTPFDVSKLNELPKVGIVYNYANASDLPAKALVDAGYDGIVSAGVGNGNLYKSVFDTLATAAKTGTAVVRSSRVPTGATTQDAEVDDAKYGFVASGTLNPQKARVLLQLALTQTKDPQQIQQIFNQY
notes: enzyme, homotetramer of 4 units of 34 kDa (L-asparaginase 5000E, Medac), without dendrimer
% uptake [2]: 4-7%
uptake into tumor cells ([2]; in words, referring to example 15): do not show uptake into tumor cells
IC50 [1, 5]: > 1.5 µM

B2: Asp-d13: L-asparaginase conjugated with maleimido dendrimer d13 (conjugate, UniProt P00805 23-348, looked up)
L-asparaginase 2: B1 L-asparaginase 2
modifications: maleimido dendrimer d13 conjugate
IC50 [1, 5]: 0.01 to 0.02 µM
FACS signal in the presence of genistein relative to without inhibitor (QGP-1 tumor cells; 10^−7 M, 3 h and 6 h, 0.1 mM genistein): 80-85%
FACS signal in the presence of rifamycin relative to without inhibitor (QGP-1 tumor cells; 10^−7 M, 3 h and 6 h, 50 mM rifamycin): 37-40%

B3: Asp-polyglycerolsulfate: L-asparaginase coupled to a polyglycerolsulfate, mean molecular weight 12000 Da, according to WO2011/095311 (conjugate, UniProt P00805 23-348, looked up)
L-asparaginase 2: B1 L-asparaginase 2
modifications: polyglycerolsulfate conjugate, 12000 Da
uptake +genistein (%) (QGP-1 tumor cells; 3 h, 0.1 mM genistein): 50%
uptake +rifamycin (%) (QGP-1 tumor cells; 3 h, 50 mM rifamycin): 76%
uptake w/o inhibitor (%) (QGP-1 tumor cells; 3 h): 100%
uptake +genistein (%) (QGP-1 tumor cells; 6 h, 0.1 mM genistein): 55%
uptake +rifamycin (%) (QGP-1 tumor cells; 6 h, 50 mM rifamycin): 72%
uptake w/o inhibitor (%) (QGP-1 tumor cells; 6 h): 100%
dependency of uptake on endocytosis (QGP-1 tumor cells; inhibition by genistein, in words): endocytosis could be identified due to inhibition by genistein
